Results: patent US11746139B2, “IL-7Rαγc binding compounds” (MEDIKINE, INC., priority 2020, dated 2023)

Key:
Rγc subunit = biological target: T1, Rγc subunit (Homo sapiens, UniProt P31785); assay: Alanine scan competition binding assay, binding to Rγc subunit; settings: alanine scan peptides
T1 construct: purchased ACRObiosystems, Inc. ILG-H5256

IL-7Rα subunit [1] = biological target: T2, IL-7Rα subunit (Homo sapiens, UniProt P16871); assay: Competition of IL-7Rα ligands with IL-7 for binding to IL-7Rα
T2 sequence (P16871 21-236): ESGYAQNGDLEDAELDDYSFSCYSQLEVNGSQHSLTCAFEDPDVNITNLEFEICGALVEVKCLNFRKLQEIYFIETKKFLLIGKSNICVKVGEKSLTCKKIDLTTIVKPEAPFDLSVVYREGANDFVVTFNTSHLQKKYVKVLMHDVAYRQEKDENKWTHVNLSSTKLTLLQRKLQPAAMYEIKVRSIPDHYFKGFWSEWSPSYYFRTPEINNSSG

IL-7Rα subunit [2] = biological target: T2, IL-7Rα subunit; assay: Phage competitive binding assay characterizing the IL-7Rα ligand binding site; settings: for Competition with Phage Clone SEQ ID NO: 5 (Family 1) for binding to the IL-7Rα subunit: phage clone 5, immobilized IL-7Rα ECD; for Competition with Phage Clone SEQ ID NO: 43 (Family 3A) for binding to the IL-7Rα subunit: phage clone 43, immobilized IL-7Rα ECD; for Competition with Phage Clone SEQ ID NO: 104 (Family 3B) for binding to the IL-7Rα subunit: phage clone 104, immobilized IL-7Rα ECD; for Competition with Phage Clone SEQ ID NO: 313 (Family 2) for binding to the IL-7Rα subunit: phage clone 313, immobilized IL-7Rα ECD

T1 sequence (P31785 23-254): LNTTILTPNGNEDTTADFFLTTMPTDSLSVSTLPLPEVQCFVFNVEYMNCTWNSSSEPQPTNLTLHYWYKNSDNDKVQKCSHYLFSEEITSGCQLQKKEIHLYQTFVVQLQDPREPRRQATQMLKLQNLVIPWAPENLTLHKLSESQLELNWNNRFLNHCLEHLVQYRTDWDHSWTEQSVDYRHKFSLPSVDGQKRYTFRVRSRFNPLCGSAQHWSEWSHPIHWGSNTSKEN

IC50 (Rγc subunit) [nM] | Competitive binding with IL-7 binding to IL-7Rα (IL-7Rα subunit [1]) | Competition with Phage Clone SEQ ID NO: 965 (N/A) for binding to the IL-7Rα subunit (IL-7Rα subunit [2]; phage clone 965, immobilized IL-7Rα ECD) | Compound | Competition with Phage Clone SEQ ID NO: 5 (Family 1) for binding to the IL-7Rα subunit (IL-7Rα subunit [2]) | Competition with Phage Clone SEQ ID NO: 43 (Family 3A) for binding to the IL-7Rα subunit (IL-7Rα subunit [2]) | Competition with Phage Clone SEQ ID NO: 104 (Family 3B) for binding to the IL-7Rα subunit (IL-7Rα subunit [2]) | Competition with Phage Clone SEQ ID NO: 313 (Family 2) for binding to the IL-7Rα subunit (IL-7Rα subunit [2])
< 50 | – | – | CC(C)C[C@@H]1NC(=O)[C@H](C)NC(=O)[C@H](C(C)C)NC(=O)CNC(=O)[C@H](CCC(=O)O)NC(=O)[C@H](Cc2c[nH]c3ccccc23)NC(=O)[C@H](CC(=O)O)NC(=O)[C@H](CCC(N)=O)NC(=O)[C@@H](NC(=O)[C@@H](NC(=O)[C@@H](NC(=O)CNC(=O)CN)C(C)C)C(C)C)CSSC[C@@H](C(=O)N[C@@H](Cc2c[nH]c3ccccc23)C(=O)N[C@@H](CCC(N)=O)C(=O)NCC(=O)NCC(=O)O)NC1=O [SEQ ID NO: 1038, G G V V C Q D W E G V A L C W Q G G] | – | – | – | –
< 5000 | – | – | CC(C)[C@@H]1NC(=O)CNC(=O)[C@H](CCC(=O)O)NC(=O)[C@H](Cc2c[nH]c3ccccc23)NC(=O)[C@H](CC(=O)O)NC(=O)[C@H](CCC(N)=O)NC(=O)[C@@H](NC(=O)[C@@H](NC(=O)[C@@H](NC(=O)CNC(=O)CN)C(C)C)C(C)C)CSSC[C@@H](C(=O)N[C@@H](Cc2c[nH]c3ccccc23)C(=O)N[C@@H](CCC(N)=O)C(=O)NCC(=O)NCC(=O)O)NC(=O)[C@H](C)NC(=O)[C@H](CCC(=O)O)NC1=O [SEQ ID NO: 1039, G G V V C Q D W E G V E A C W Q G G] | – | – | – | –
– | do not bind competitively | – | G G V P W C T L D P G S L Q C A W F [SEQ ID NO: 313] | + (IL-7Rα ligand competes with phage binding.) | + (IL-7Rα ligand competes with phage binding.) | + (IL-7Rα ligand competes with phage binding.) | + (IL-7Rα ligand competes with phage binding.)
– | do not bind competitively | 0^2 | QCVHWDLDTLFGCIREQLEL [SEQ ID NO: 146] | +^1 (IL-7Rα ligand competes with phage binding.) | + (IL-7Rα ligand competes with phage binding.) | + (IL-7Rα ligand competes with phage binding.) | + (IL-7Rα ligand competes with phage binding.)

Further lines, the compound ahead of its results:

Compound | IC50 (Rγc subunit) [nM] | Competitive binding with IL-7 binding to IL-7Rα (IL-7Rα subunit [1]) | Competition with Phage Clone SEQ ID NO: 965 (N/A) for binding to the IL-7Rα subunit (IL-7Rα subunit [2]; phage clone 965, immobilized IL-7Rα ECD) | Competition with Phage Clone SEQ ID NO: 5 (Family 1) for binding to the IL-7Rα subunit (IL-7Rα subunit [2]) | Competition with Phage Clone SEQ ID NO: 43 (Family 3A) for binding to the IL-7Rα subunit (IL-7Rα subunit [2]) | Competition with Phage Clone SEQ ID NO: 104 (Family 3B) for binding to the IL-7Rα subunit (IL-7Rα subunit [2]) | Competition with Phage Clone SEQ ID NO: 313 (Family 2) for binding to the IL-7Rα subunit (IL-7Rα subunit [2])
Q C I H W D I E T L L S C V [SEQ ID NO: 5] | – | do not bind competitively | – | + (IL-7Rα ligand competes with phage binding.) | + (IL-7Rα ligand competes with phage binding.) | + (IL-7Rα ligand competes with phage binding.) | + (IL-7Rα ligand competes with phage binding.)
V Y C A E I G E Y R V C R Q [SEQ ID NO: 43] | – | do not bind competitively | – | + (IL-7Rα ligand competes with phage binding.) | + (IL-7Rα ligand competes with phage binding.) | + (IL-7Rα ligand competes with phage binding.) | + (IL-7Rα ligand competes with phage binding.)
Y M A C S S G L S L C R L S [SEQ ID NO: 104] | – | do not bind competitively | – | + (IL-7Rα ligand competes with phage binding.) | + (IL-7Rα ligand competes with phage binding.) | + (IL-7Rα ligand competes with phage binding.) | + (IL-7Rα ligand competes with phage binding.)
